This note sets out measurements from the RNAGym collection of RNA variant scans (doi:10.1073/pnas.2313332121).

Fewer inactive variants are shown than the library holds.

The labels stand for the following.
B1: TPR 5TU (parent)
chain: GGAUCUUCUCGAUCUAACAAAAAAGACAAAUCUGCCACAAAGCUUGAGAGCAUCUUCGGAUGCAGAGGCGGCAGCCUUCGGUGGCGCGAUAGCGCCAACGUUCUCAACUAUGACACGCAAAACGCGUGCUCCGUUGAAUGGAGUUUAUCAUG

Variants of B1 are the subject of this data set. The data set can be described thus: polymerase ribozyme fitness, log enrichment relative to wild type (log ratio); higher = more active; in vitro selection for triplet polymerase activity. The method in brief: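 In triplicate, a single round of in vitro selection was run on each mutant library, PCR-built and transcribed, covering one subunit of a heterodimeric triplet polymerase ribozyme. Frozen incubation at −7 °C followed annealing with a biotinylated primer, partner subunit and triplets, and extended constructs were then gel-excised, streptavidin-captured and taken through RT-PCR. Fitness is the logarithm of genotype enrichment over wild-type enrichment, from inverse-variance-weighted replicate averages of Illumina-sequenced inputs and outputs. […] only genotypes with ≥10 input reads and ≥1 read per output were kept.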
In the case of C8A A49G A60U C75U U78C C85G C116G G140A, the “polymerase ribozyme fitness (log ratio)” value was no more than -4.2.

For the variant C87U U102G A138C, the “polymerase ribozyme fitness (log ratio)” value was no more than -4.2.

Consider U33A C51U C57G C75G C93U C125A G140U, for which the “polymerase ribozyme fitness (log ratio)” value is no more than -4.2.

For G48A A52C C105U C108U A137C, the “polymerase ribozyme fitness (log ratio)” value was no more than -4.2.

Take U15A A20G A26U A39G A47C C79U C103G G140A: the “polymerase ribozyme fitness (log ratio)” value was no more than -4.2.

For U9G A39G U53A G83C C87A C108G U151A, the “polymerase ribozyme fitness (log ratio)” value is no more than -4.2.

Turning to U6G A16G C85U C125A, the “polymerase ribozyme fitness (log ratio)” value was -1.05.

Take A17U U44A U55G G136A: the “polymerase ribozyme fitness (log ratio)” value is no more than -4.2.

For A20U A24U G83C C93G G143A, the “polymerase ribozyme fitness (log ratio)” value was no more than -4.2.

Take A23G C54G U56A A138U G140U U146C: the “polymerase ribozyme fitness (log ratio)” value is no more than -4.2.

On to C57A A91G C132G, for which the “polymerase ribozyme fitness (log ratio)” value is -4.05.

Regarding C57U G84U, the “polymerase ribozyme fitness (log ratio)” value is -2.27.

For the variant G83A G136A, the “polymerase ribozyme fitness (log ratio)” value was -0.0141.

With A20G G48A C69A A98U A142G, the “polymerase ribozyme fitness (log ratio)” value was -3.3.

A26C A30G U45A A60G A97U U104G G143U: the “polymerase ribozyme fitness (log ratio)” value is no more than -4.2.

For the variant C18G U55A C85G, the “polymerase ribozyme fitness (log ratio)” value was -2.84.

Consider C14G G92A, for which the “polymerase ribozyme fitness (log ratio)” value was -4.15.

Take A40U U56G C72U A91G: the “polymerase ribozyme fitness (log ratio)” value is -3.52.

For the variant U55A C76G C85A A113U G128A, the “polymerase ribozyme fitness (log ratio)” value was no more than -4.2.

C93U G124A C131U U139G: the “polymerase ribozyme fitness (log ratio)” value was determined as 0.429.

Take A41C U56A G83U U127C G152A: the “polymerase ribozyme fitness (log ratio)” value was -4.07.

On to C85U U146C, for which the “polymerase ribozyme fitness (log ratio)” value is -0.574.

On to U78A C105U A115U, for which the “polymerase ribozyme fitness (log ratio)” value is no more than -4.2.

With G11A A17C A20C A22U G46U C85U, the “polymerase ribozyme fitness (log ratio)” value was -3.03.

For C57A A113G, the “polymerase ribozyme fitness (log ratio)” value was -1.32.

In the case of A52G U82G, the “polymerase ribozyme fitness (log ratio)” value was 0.0484.

As for U61A A66C A73U A91G, the “polymerase ribozyme fitness (log ratio)” value is no more than -4.2.

With U45G G59A G84A A89G C118U, the “polymerase ribozyme fitness (log ratio)” value was -3.18.

Regarding C14A A20U A26C G84A G141A, the “polymerase ribozyme fitness (log ratio)” value is no more than -4.2.

Take A24G A40U U61C A137C A142C: the “polymerase ribozyme fitness (log ratio)” value is no more than -4.2.

As to A41C C87U U102A U109C G136A A138U, the “polymerase ribozyme fitness (log ratio)” value is no more than -4.2.

With A22U G68U G74A U78A G92A C125A G140U U145G, the “polymerase ribozyme fitness (log ratio)” value is no more than -4.2.

Turning to C96U A119C, the “polymerase ribozyme fitness (log ratio)” value is -1.05.

As to G42A A49C G62C U77C G88A C96A C132G, the “polymerase ribozyme fitness (log ratio)” value is no more than -4.2.

As to A26C U55G G59C, the “polymerase ribozyme fitness (log ratio)” value was -2.72.

In the case of U61A C85U A89U C118A C149U, the “polymerase ribozyme fitness (log ratio)” value is -3.61.

Regarding U6A A64U A66G G84A, the “polymerase ribozyme fitness (log ratio)” value is no more than -4.2.

Take U6A A17C A52U G84U A89C G141A: the “polymerase ribozyme fitness (log ratio)” value was -3.87.

A19G U44A G58A G67A C87A A106G G141U: the “polymerase ribozyme fitness (log ratio)” value was no more than -4.2.

On to G11C C85U A97U G124C, for which the “polymerase ribozyme fitness (log ratio)” value was -3.4.

With U4G C51G A73U C87U C96A G117A, the “polymerase ribozyme fitness (log ratio)” value is no more than -4.2.

With A16G C35A C87G U109C G126C C149G, the “polymerase ribozyme fitness (log ratio)” value was no more than -4.2.

Take C108U G117U A120G: the “polymerase ribozyme fitness (log ratio)” value is -3.18.

In the case of A16U G48U G86C C87A A97U C123U U148G, the “polymerase ribozyme fitness (log ratio)” value was no more than -4.2.

Turning to A52C A66C C69A C87G G133U, the “polymerase ribozyme fitness (log ratio)” value is no more than -4.2.

Take C5G A41C U134C: the “polymerase ribozyme fitness (log ratio)” value is -1.61.

Regarding C99G C108U, the “polymerase ribozyme fitness (log ratio)” value was -4.14.

In the case of C93A A121G U144A, the “polymerase ribozyme fitness (log ratio)” value is -1.18.

On to C14G C54U G68C C87U, for which the “polymerase ribozyme fitness (log ratio)” value is no more than -4.2.

As to A17C C85A C99A, the “polymerase ribozyme fitness (log ratio)” value is -2.66.

For C35G C76G G81A U82G C93U A121G G152U, the “polymerase ribozyme fitness (log ratio)” value was -3.58.

Take U78G G117C: the “polymerase ribozyme fitness (log ratio)” value is no more than -4.2.

As for U56A G94A A97U, the “polymerase ribozyme fitness (log ratio)” value is -1.41.

Turning to A28U U44G A60C C85A U144C U148A, the “polymerase ribozyme fitness (log ratio)” value was no more than -4.2.

C10U A89U C95U: the “polymerase ribozyme fitness (log ratio)” value is -4.15.

For the variant U78A C87U A91G A98C A120C U130G G141A, the “polymerase ribozyme fitness (log ratio)” value was no more than -4.2.

Turning to C32G G58A C93A G128A, the “polymerase ribozyme fitness (log ratio)” value was -4.2.

For C54U C85A A119U U130G, the “polymerase ribozyme fitness (log ratio)” value is -3.83.

Consider U82G G92C A106G C116U U135C A150G, for which the “polymerase ribozyme fitness (log ratio)” value was no more than -4.2.

For the variant C87A A107G A110G A120G U139C G140A A147G, the “polymerase ribozyme fitness (log ratio)” value was no more than -4.2.

With A52C C57U G80C A98U, the “polymerase ribozyme fitness (log ratio)” value is -2.02.

As for A22G A40G G42C C79A G94C, the “polymerase ribozyme fitness (log ratio)” value is no more than -4.2.

In the case of U56A U109C G141U, the “polymerase ribozyme fitness (log ratio)” value was -2.56.

Consider C5G G141A, for which the “polymerase ribozyme fitness (log ratio)” value stood at 0.249.

In the case of G34A A39C C93A U104C, the “polymerase ribozyme fitness (log ratio)” value is no more than -4.2.

Consider C36A C43G, for which the “polymerase ribozyme fitness (log ratio)” value is no more than -4.2.

Consider A23G U90G C93A A107U, for which the “polymerase ribozyme fitness (log ratio)” value is no more than -4.2.

A29G G34A U56A C75U: the “polymerase ribozyme fitness (log ratio)” value is no more than -4.2.

On to U9C C27G U44G C85U C93G, for which the “polymerase ribozyme fitness (log ratio)” value is no more than -4.2.

Take A110G G117A U144A: the “polymerase ribozyme fitness (log ratio)” value is -4.15.

Turning to G50C A52C C118G, the “polymerase ribozyme fitness (log ratio)” value was -3.55.

As for C8U C63U G80A G84C C96U, the “polymerase ribozyme fitness (log ratio)” value was no more than -4.2.

For U7A C72G G80C C96U U104C A122G U146A, the “polymerase ribozyme fitness (log ratio)” value is no more than -4.2.

For the variant C87U A98U, the “polymerase ribozyme fitness (log ratio)” value was -1.16.

In the case of A19U G83C A89C A97G, the “polymerase ribozyme fitness (log ratio)” value was -2.32.

On to C14G C54U C72U, for which the “polymerase ribozyme fitness (log ratio)” value is -3.4.

Turning to C105A A150C, the “polymerase ribozyme fitness (log ratio)” value was -3.93.

A47G G58C C93A U101G: the “polymerase ribozyme fitness (log ratio)” value is -3.96.

Regarding A41G G86C, the “polymerase ribozyme fitness (log ratio)” value was -3.28.

U6A U9A G92C C114A C118U C123G: the “polymerase ribozyme fitness (log ratio)” value is no more than -4.2.

In the case of A20G A26G G65A C69A C105A, the “polymerase ribozyme fitness (log ratio)” value was no more than -4.2.

In the case of G59A A89G, the “polymerase ribozyme fitness (log ratio)” value was -1.1.

For C54G U55A G84A, the “polymerase ribozyme fitness (log ratio)” value is -1.93.
